Assay results: paper PMC8298264, “Function of cofactor Akirin2 in the regulation of gene expression in model human neutrophil-like HL60 cells” (Bioscience Reports, 2021)

B1: sp¦Q9UJZ1¦STML2_HUMAN (protein, UniProt Q9UJZ1 29-356, looked up)
Stomatin-like protein 2, …: SSGLPRNTVVLFVPQQEAWVVERMGRFHRILEPGLNILIPVLDRIRYVQSLKEIVINVPEQSAVTLDNVTLQIDGVLYLRIMDPYKASYGVEDPEYAVTQLAQTTMRSELGKLSLDKVFRERESLNASIVDAINQAADCWGIRCLRYEIKDIHVPPRVKESMQMQVEAERRKRATVLESEGTRESAINVAEGKKQAQILASEAEKAEQINQAAGEASAVLAKAKAKAEAIRILAAALTQHNGDAAASLTVAEQYVSAFSKLAKDSNTILLPSNPGDVTSMVAQAMGVYGALTKAPVPGTPDSLSSGSSRDVQGTDASLDEELDRVKMS
B2: sp¦P08559¦ODPA_HUMAN (protein, UniProt P08559 30-390, looked up)
Pyruvate dehydrogenase E1 …: FANDATFEIKKCDLHRLEEGPPVTTVLTREDGLKYYRMMQTVRRMELKADQLYKQKIIRGFCHLCDGQEACCVGLEAGINPTDHLITAYRAHGFTFTRGLSVREILAELTGRKGGCAKGKGGSMHMYAKNFYGGNGIVGAQVPLGAGIALACKYNGKDEVCLTLYGDGAANQGQIFEAYNMAALWKLPCIFICENNRYGMGTSVERAAASTDYYKRGDFIPGLRVDGMDILCVREATRFAAAYCRSGKGPILMELQTYRYHGHSMSDPGVSYRTREEIQEVRSKSDPIMLLKDRMVNSNLASVEELKEIDVEVRKEIEDAAQFATADPEPPLEELGYHIYSSDPPFEVRGANQWIKFKSVS
B3: sp¦O00567¦NOP56_HUMAN (protein, UniProt O00567 1-594, looked up)
Nucleolar protein 56: MVLLHVLFEHAVGYALLALKEVEEISLLQPQVEESVLNLGKFHSIVRLVAFCPFASSQVALENANAVSEGVVHEDLRLLLETHLPSKKKKVLLGVGDPKIGAAIQEELGYNCQTGGVIAEILRGVRLHFHNLVKGLTDLSACKAQLGLGHSYSRAKVKFNVNRVDNMIIQSISLLDQLDKDINTFSMRVREWYGYHFPELVKIINDNATYCRLAQFIGNRRELNEDKLEKLEELTMDGAKAKAILDASRSSMGMDISAIDLINIESFSSRVVSLSEYRQSLHTYLRSKMSQVAPSLSALIGEAVGARLIAHAGSLTNLAKYPASTVQILGAEKALFRALKTRGNTPKYGLIFHSTFIGRAAAKNKGRISRYLANKCSIASRIDCFSEVPTSVFGEKLREQVEERLSFYETGEIPRKNLDVMKEAMVQAEEAAAEITRKLEKQEKKRLKKEKKRLAALALASSENSSSTPEECEEMSEKPKKKKKQKPQEVPQENGMEDPSISFSKPKKKKSFSKEELMSSDLEETAGSTSIPKRKKSTPKEETVNDPEEAGHRSGSKKKRKFSKEEPVSSGPEEAVGKSSSKKKKKFHKASQED
B4: sp¦P27824¦CALX_HUMAN (protein, UniProt P27824 21-592, looked up)
Calnexin: HDGHDDDVIDIEDDLDDVIEEVEDSKPDTTAPPSSPKVTYKAPVPTGEVYFADSFDRGTLSGWILSKAKKDDTDDEIAKYDGKWEVEEMKESKLPGDKGLVLMSRAKHHAISAKLNKPFLFDTKPLIVQYEVNFQNGIECGGAYVKLLSKTPELNLDQFHDKTPYTIMFGPDKCGEDYKLHFIFRHKNPKTGIYEEKHAKRPDADLKTYFTDKKTHLYTLILNPDNSFEILVDQSVVNSGNLLNDMTPPVNPSREIEDPEDRKPEDWDERPKIPDPEAVKPDDWDEDAPAKIPDEEATKPEGWLDDEPEYVPDPDAEKPEDWDEDMDGEWEAPQIANPRCESAPGCGVWQRPVIDNPNYKGKWKPPMIDNPSYQGIWKPRKIPNPDFFEDLEPFRMTPFSAIGLELWSMTSDIFFDNFIICADRRIVDDWANDGWGLKKAADGAAEPGVVGQMIEAAEERPWLWVVYILTVALPVFLVILFCCSGKKQTSGMEYKKTDAPQPDVKEEEEEKEEEKDKGDEEEEGEEKLEEKQKSDAEEDGGTVSQEEEDRKPKAEEDEILNRSPRNRKPRRE
B5: sp¦Q13464¦ROCK1_HUMAN (protein, UniProt Q13464 2-1354, looked up)
Rho-associated protein kinase …: STGDSFETRFEKMDNLLRDPKSEVNSDCLLDGLDALVYDLDFPALRKNKNIDNFLSRYKDTINKIRDLRMKAEDYEVVKVIGRGAFGEVQLVRHKSTRKVYAMKLLSKFEMIKRSDSAFFWEERDIMAFANSPWVVQLFYAFQDDRYLYMVMEYMPGGDLVNLMSNYDVPEKWARFYTAEVVLALDAIHSMGFIHRDVKPDNMLLDKSGHLKLADFGTCMKMNKEGMVRCDTAVGTPDYISPEVLKSQGGDGYYGRECDWWSVGVFLYEMLVGDTPFYADSLVGTYSKIMNHKNSLTFPDDNDISKEAKNLICAFLTDREVRLGRNGVEEIKRHLFFKNDQWAWETLRDTVAPVVPDLSSDIDTSNFDDLEEDKGEEETFPIPKAFVGNQLPFVGFTYYSNRRYLSSANPNDNRTSSNADKSLQESLQKTIYKLEEQLHNEMQLKDEMEQKCRTSNIKLDKIMKELDEEGNQRRNLESTVSQIEKEKMLLQHRINEYQRKAEQENEKRRNVENEVSTLKDQLEDLKKVSQNSQLANEKLSQLQKQLEEANDLLRTESDTAVRLRKSHTEMSKSISQLESLNRELQERNRILENSKSQTDKDYYQLQAILEAERRDRGHDSEMIGDLQARITSLQEEVKHLKHNLEKVEGERKEAQDMLNHSEKEKNNLEIDLNYKLKSLQQRLEQEVNEHKVTKARLTDKHQSIEEAKSVAMCEMEKKLKEEREAREKAENRVVQIEKQCSMLDVDLKQSQQKLEHLTGNKERMEDEVKNLTLQLEQESNKRLLLQNELKTQAFEADNLKGLEKQMKQEINTLLEAKRLLEFELAQLTKQYRGNEGQMRELQDQLEAEQYFSTLYKTQVKELKEEIEEKNRENLKKIQELQNEKETLATQLDLAETKAESEQLARGLLEEQYFELTQESKKAASRNRQEITDKDHTVSRLEEANSMLTKDIEILRRENEELTEKMKKAEEEYKLEKEEEISNLKAAFEKNINTERTLKTQAVNKLAEIMNRKDFKIDRKKANTQDLRKKEKENRKLQLELNQEREKFNQMVVKHQKELNDMQAQLVEECAHRNELQMQLASKESDIEQLRAKLLDLSDSTSVASFPSADETDGNLPESRIEGWLSVPNRGNIKRYGWKKQYVVVSSKKILFYNDEQDKEQSNPSMVLDIDKLFHVRPVTQGDVYRAETEEIPKIFQILYANEGECRKDVEMEPVQQAEKTNFQNHKGHEFIPTLYHFPANCDACAKPLWHVFKPPPALECRRCHVKCHRDHLDKKEDLICPCKVSYDVTSARDMLLLACSQDEQKKWVTHLVKKIPKNPPSGFVRASPRTLSTRSTANQSFRKVVKNTSGKTS
B6: sp¦P04899¦GNAI2_HUMAN (protein, UniProt P04899 2-355, looked up)
Guanine nucleotide-binding …: GCTVSAEDKAAAERSKMIDKNLREDGEKAAREVKLLLLGAGESGKSTIVKQMKIIHEDGYSEEECRQYRAVVYSNTIQSIMAIVKAMGNLQIDFADPSRADDARQLFALSCTAEEQGVLPDDLSGVIRRLWADHGVQACFGRSREYQLNDSAAYYLNDLERIAQSDYIPTQQDVLRTRVKTTGIVETHFTFKDLHFKMFDVGGQRSERKKWIHCFEGVTAIIFCVALSAYDLVLAEDEEMNRMHESMKLFDSICNNKWFTDTSIILFLNKKDLFEEKITHSPLTICFPEYTGANKYDEAASYIQSKFEDLNKRKDTKEIYTHFTCATDTKNVQFVFDAVTDVIIKNNLKDCGLF
B7: sp¦O43592¦XPOT_HUMAN (protein, UniProt O43592 1-962, looked up)
Exportin-T: MDEQALLGLNPNADSDFRQRALAYFEQLKISPDAWQVCAEALAQRTYSDDHVKFFCFQVLEHQVKYKYSELTTVQQQLIRETLISWLQAQMLNPQPEKTFIRNKAAQVFALLFVTEYLTKWPKFFFDILSVVDLNPRGVDLYLRILMAIDSELVDRDVVHTSEEARRNTLIKDTMREQCIPNLVESWYQILQNYQFTNSEVTCQCLEVVGAYVSWIDLSLIANDRFINMLLGHMSIEVLREEACDCLFEVVNKGMDPVDKMKLVESLCQVLQSAGFFSIDQEEDVDFLARFSKLVNGMGQSLIVSWSKLIKNGDIKNAQEALQAIETKVALMLQLLIHEDDDISSNIIGFCYDYLHILKQLTVLSDQQKANVEAIMLAVMKKLTYDEEYNFENEGEDEAMFVEYRKQLKLLLDRLAQVSPELLLASVRRVFSSTLQNWQTTRFMEVEVAIRLLYMLAEALPVSHGAHFSGDVSKASALQDMMRTLVTSGVSSYQHTSVTLEFFETVVRYEKFFTVEPQHIPCVLMAFLDHRGLRHSSAKVRSRTAYLFSRFVKSLNKQMNPFIEDILNRIQDLLELSPPENGHQSLLSSDDQLFIYETAGVLIVNSEYPAERKQALMRNLLTPLMEKFKILLEKLMLAQDEERQASLADCLNHAVGFASRTSKAFSNKQTVKQCGCSEVYLDCLQTFLPALSCPLQKDILRSGVRTFLHRMIICLEEEVLPFIPSASEHMLKDCEAKDLQEFIPLINQITAKFKIQVSPFLQQMFMPLLHAIFEVLLRPAEENDQSAALEKQMLRRSYFAFLQTVTGSGMSEVIANQGAENVERVLVTVIQGAVEYPDPIAQKTCFIILSKLVELWGGKDGPVGFADFVYKHIVPACFLAPLKQTFDLADAQTVLALSECAVTLKTIHLKRGPECVQYLQQEYLPSLQVAPEIIQEFCQALQQPDAKVFKNYLKVFFQRAKP
B8: sp¦Q9UL25¦RAB21_HUMAN (protein, UniProt Q9UL25 2-222, looked up)
Ras-related protein Rab-21: AAAGGGGGGAAAAGRAYSFKVVLLGEGCVGKTSLVLRYCENKFNDKHITTLQASFLTKKLNIGGKRVNLAIWDTAGQERFHALGPIYYRDSNGAILVYDITDEDSFQKVKNWVKELRKMLGNEICLCIVGNKIDLEKERHVSIQEAESYAESVGAKHYHTSAKQNKGIEELFLDLCKRMIETAQVDERAKGNGSSQPGTARRGVQIIDDEPQAQTSGGGCC
B9: sp¦Q8N5K1¦CISD2_HUMAN (protein, UniProt Q8N5K1 2-135, looked up)
CDGSH iron-sulfur …: VLESVARIVKVQLPAYLKRLPVPESITGFARLTVSEWLRLLPFLGVLALLGYLAVRPFLPKKKQQKDSLINLKIQKENPKVVNEINIEDLCLTKAAYCRCWRSKTFPACDGSHNKHNELTGDNVGPLILKKKEV
B10: sp¦P84103¦SRSF3_HUMAN (protein, UniProt P84103 1-164, looked up)
Serine/arginine-rich splicing …: MHRDSCPLDCKVYVGNLGNNGNKTELERAFGYYGPLRSVWVARNPPGFAFVEFEDPRDAADAVRELDGRTLCGCRVRVELSNGEKRSRNRGPPPSWGRRPRDDYRRRSPPPRRRSPRRRSFSRSRSRSLSRDRRRERSLSRERNHKPSRSFSRSRSRSRSNERK

The molecules below were run on human HL60 cells (assay: SWATH-MS proteomics, differential protein representation, akirin2 KO vs WT HL60 cells). Conditions: KO vs WT; akirin2 KO vs WT HL60 cells; sheet "Under-represented in KO".
Type: cell-based
Procedure, shortened: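 Read-out is label-free SWATH-MS protein area, globally normalized to total detected-protein area, with identifications held at 1% FDR against a library from information-dependent acquisition.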

| Molecule | Fold Change | Log (Fold Change) |
| --- | --- | --- |
| B1 | 0.6025 | -0.22 |
| B2 | 0.6031 | -0.2196 |
| B3 | 0.6041 | -0.2189 |
| B4 | 0.6087 | -0.2156 |
| B5 | 0.6099 | -0.2148 |
| B6 | 0.61 | -0.2146 |
| B7 | 0.6107 | -0.2142 |
| B8 | 0.6117 | -0.2135 |
| B9 | 0.6126 | -0.2128 |

Same assay, conditions: akirin2 KO vs WT HL60 cells; sheet "Under-represented in KO"

| Molecule | Fold Change | Log (Fold Change) |
| --- | --- | --- |
| B10 | 0.2712 | -0.5667 |
